# The RNAGym collection of RNA variant scans (doi:10.1073/pnas.2313332121)
# B1: TPR t1 (parent)
# chain: GACCAAUCUGCCCUCAGAGCUCGAGAACAUCUUCGGAUGCAGAGGAGGCAGGCUUCGGUGGCGCGAUAGCGCCAACGUCCUCAACCUCCAAUGCAUCCCACCACAUGAUGAUGCCUGAAGAGCCUUGGUUUUUUG
# Variants of: B1
# Assay: polymerase ribozyme fitness, log enrichment relative to wild type (log ratio); higher = more active; in vitro selection for triplet polymerase activity
# Outline: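 For each subunit of a heterodimeric triplet polymerase ribozyme, a mutant library was built by PCR and transcribed, then taken through a single in vitro selection round in triplicate. Selection involved annealing to a biotinylated primer, the partner subunit and triplets, incubation frozen at −7 °C, gel excision of extended constructs, capture on streptavidin beads and RT-PCR. Genotypes were retained after Illumina sequencing of inputs and outputs only with ≥10 input reads and ≥1 read in each output. Fitness is defined as the logarithm of a genotype's enrichment relative to wild-type enrichment, using inverse-variance-weighted averages across replicates, with the logarithm taken to base 2.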
row,Variant,polymerase ribozyme fitness (log ratio)
1,A2C C115A,-1.3
2,A2G C88U,-0.191
3,A2G C40A C89U,-1.58
4,A2C C123U G128C,-0.305
5,A2G C13G,0.491
6,A2C U109G C114U U129G,-5.24
7,A2G U78C,-0.357
8,A2C C114A,-3.32
9,A2C C114U,-3.24
10,A2C C76U U126A,-1.99
11,A2G C85U A95G,-2.08
12,A2G G45U,-1.83
13,A2U,-2.07
14,A2G,-0.0197
15,A2G C22G A26G A84U G122A U130C,-5.4
16,A2C G36C C62U,-2.66
17,A2C C101U,-1.67
18,A2C C101A,-2.7
19,A2G U7C G10U G52C,-1.99
20,A2C G63U A100U U133G,-3.47
21,A2G C62A C85A,-3.14
22,A2C G36A U54C,-2.04
23,A2G U38G G42U C115U,-3.06
24,A2G C73U G113A C114G A119U U126G,-5.02

row,Variant,polymerase ribozyme fitness (log ratio)
1,A2C G39C G69U U112C,-0.882
2,A2C G47A G93U,-5.29
3,A2U A5U C8A C79G C115G,-5.43
4,A2U A5G A18U A43C C56U C85A U126C U129A,-3.94
5,A2G C12A C15U G45U U106A,-3.92
6,A2G U14G C70A C101G G120U G127C,-3.71
7,A2G C72U,0.0702
8,A2G G77U C82G,-0.807
9,A2U A5G G60C,-4
10,A2G C62A,-0.128
11,A2G C20U G60C,-1.66
12,A2C G39U A41C C56G C101A C123G,-4.81
13,A2G C13U A41C G48C U78G A111G,-1.71
14,A2G C8G A43G G69C C98A C123A,-7.53
15,A2G C11U G48C U92A,-4.56
16,A2G G61C C88U C124A,-0.51
17,A2G C56G C89G A90C,-2.84
18,A2G A6C C56U,0.182
19,A2G C11G G42A C89G,-4.87
20,A2G G35U C124A,-4.09
21,A2U A6U C13U C20U G57A C82G,-4.79
22,A2G C70A C123U,-0.0496
23,A2C C98U,-3.19
24,A2G C73A A90G A105G,-2.1

row,Variant,polymerase ribozyme fitness (log ratio)
1,A2C C73A,-1.09
2,A2C G60A C82U,-2.16
3,A2G A111C U112G G113U U116A C124A,-2.74
4,A2G C11A G71U A90U U130A U133G,-2.92
5,A2G C89G G110U,-4.03
6,A2G G135U,-0.44
7,A2C C86U,-1.99
8,A2G C13A A43U G51U C64U A83U A84G,-6.26
9,A2G G120A U129C G135U,-1.81
10,A2C U54A C72G C104U G113A,-2.82
11,A2G G47A C72G,-0.743
12,A2C U38A C56A G113C U129A,-4.44
13,A2C C86U A90C,-4.21
14,A2G C15U A43U G45U C56U C62U,-6.15
15,A2C U7C C15U C72U A105U,-3.49
16,A2C U33A G60A G71U C115U,-6.78
17,A2G C89A,-2.01
18,A2G A27G G52U G63C U87C,-2.6
19,A2U A6U G57U G120C,-4.53
20,A2G C49U C79A C86G,-2.96
21,A2G C28U,-2.27
22,A2G G71A,-0.784
23,A2G G36A C49G G69U A90G C97U G120C,0.751
24,A2G C11U C22G C62U U130A,-4.9

row,Variant,polymerase ribozyme fitness (log ratio)
1,A2G C88A A100U C115U,-3.59
2,A2G A41U A46U,-3.37
3,A2C U21A,-2.19
4,A2G G117A,-1.6
5,A2G C13A C72U U129G,-2.36
6,A2C U59A G122A,-2.15
7,A2C U112A G127A,-0.337
8,A2C U14G A37C C49G G60C U96A A111U,-6.59
9,A2G C8U,0.157
10,A2C G60C,-1.65
11,A2G A6G C8A A46C U87C,-0.00636
12,A2G C62U U78A A103C,-5.9
13,A2G C13U G69C,-0.807
14,A2G C12U A66G C79A G122A,-2.62
15,A2C G71C C99A A105U A111G,-6.44
16,A2G G63C A74C U87C A100U,-4.51
17,A2C G17A G44C G45A C86U U109A U131C,-7.35
18,A2G C56G C70G U112A,-3.63
19,A2G C34A A46G C73A,-2.49
20,A2U A5C C13U G48A C70A,-4.35
21,A2G G61A C102U U109A,-5.41
22,A2C U112A,-0.421
23,A2G G93A G120U,-0.278
24,A2G A50U G57C G60C C85G G113A,-2.81

row,Variant,polymerase ribozyme fitness (log ratio)
1,A2G C8G U96A G135U,-1.73
2,A2C G120U C124A U131G,-1.15
3,A2G A91U U96G G120U,-2.53
4,A2G C20G G71C G113C,-3
5,A2G G17A,-2.9
6,A2G C15G G44A C62A A90C C97U G120A,-3.89
7,A2G C8A G63A G110A,-3.11
8,A2C G120A C123A,-0.977
9,A2C G69A C101U C104U G113A G127C U129C,-5.09
10,A2C G120C,-0.618
11,A2C G120U,-0.948
12,A2G C8G C22U,-5.08
13,A2G G17C C56U,-4.71
14,A2G U7C U9C G51U,-2.87
15,A2G C53A G60A A105C,-4.11
16,A2G C12A,-0.474
17,A2G C15G,-3.2
18,A2C U7C G113U G120C,-4.07
19,A2G C114U G120U,-3.07
20,A2G C101G,-1.53
21,A2G C4A U7C G47C C56A A68G C99A G110U C115G G117C U129A,-7.47
22,A2G C13G C82G U129C,-1.79
23,A2G C20U G36C C123U,-1.11
24,A2G A41U G120U,-1.2

row,Variant,polymerase ribozyme fitness (log ratio)
1,A2G C12U A43U G44U C115U,-2.29
2,A2G C102A C114U,-4.44
3,A2C U21G C72A G77U,-4.23
4,A2G C49U C62A C94G,-4.35
5,A2G C88A G93A C115A G117U,-6.36
6,A2G C123U,1.06
7,A2G G52A C85U,-1.87
8,A2G G45A G63U U112A,-0.348
9,A2G C13A A68U C85A A103U G117U,-6.8
10,A2G C72U A74U C102U U130A,-3.21
11,A2G G120C,1.19
12,A2U A16U C72G C86U,-4.45
13,A2G G36A C49G A84C C123A U126G,-2.7
14,A2C G61C,-3.02
15,A2U A6C C76A C115U U126A U129C U130A U133A,-4.89
16,A2U A6U G120A,0.00399
17,A2G C62U G110A C114G C124A,-7.09
18,A2C G69A,-3.57
19,A2G C13U C53G C72G,-0.413
20,A2C G71U G93A U112A G113C,-4.56
21,A2G C13U A46U C62A C86A G113U G120U C123G,-6.73
22,A2C G61C A121C,-1.16
23,A2C U96A,-3.03
24,A2G U78A C79U,0.0458

row,Variant,polymerase ribozyme fitness (log ratio)
1,A2C G127U,-1.27
2,A2G G10A C53U C62U A90G,-0.379
3,A2G U87G A95U G110A,-0.979
4,A2C G52A,-2.22
5,A2G G69A,-2.65
6,A2G U32C C40G C49A A68G C73U,-5.24
7,A2G G57A G61A G117U,-3.55
8,A2G A41C G42A C82G C89A U92G G120U,-5.77
9,A2G C13G A37U C49A C53A A100G C114A C124A,-7.24
10,A2C U130A,-2.07
11,A2G U9G C56U C88A,-1.54
12,A2G C3A G39U U59A A105C U106A C123G,-2.32
13,A2U A5G U9G A41C,-2.01
14,A2G A5C C11A G71U C99U,-3.65
15,A2C U7G A43C G63C C115U,-4.87
16,A2G C12A C85A G113C,-5.2
17,A2G U106G U125G,-2.92
18,A2G C70U,-0.43
19,A2G C70A,-1.82
20,A2G G44A,-0.766
21,A2G C86G U126C,-2.8
22,A2G A29G G120A C123G,-0.383
23,A2G C40G G45U G52A C124G,-2.61
